Source: PMC4726241, “Crystal structure and SUMO binding of Slx1-Slx4 complex” (Scientific Reports, 2016)

Target: T1, Slx1^RING+CT-Slx4^CCD complex (S. pombe, UniProt Q9P7M3 176-271; Q9P6M0 352-419)
T1 construct: Slx4, Schizosaccharomyces pombe, C-terminal conserved domain, residues 352-419; source: E. coli, co-expressed, purified by a procedure similar to that of Slx1^RING-Slx4^CCD; not shown: His6, N-terminal, cleaved
T1 sequence (looked up) 1: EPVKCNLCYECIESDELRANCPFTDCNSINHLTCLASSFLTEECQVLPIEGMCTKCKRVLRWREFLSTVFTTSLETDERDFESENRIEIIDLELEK
T1 sequence (looked up) 2: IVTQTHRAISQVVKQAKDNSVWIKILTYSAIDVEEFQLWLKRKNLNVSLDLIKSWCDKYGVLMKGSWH
Test: ITC; 2.37 mM Pmt3 injected into 120 μM complex in the cell; 25 °C; 20 mM sodium phosphate pH 6.8, 100 mM NaCl; three repeats
Details: both partners purified

B1: mature Pmt3 (S. pombe SUMO), residues 1-111 (natural protein, UniProt O13351 1-111, looked up)
chain: MSESPSANISDADKSAITPTTGDTSQQDVKPSTEHINLKVVGQDNNEVFFKIKKTTEFSKLMKIYCARQGKSMNSLRFLVDGERIRPDQTPAELDMEDGDQIEAVLEQLGG
notes: Pmt3 (SUMO), Schizosaccharomyces pombe, mature form, residues 1-111; Uniformly 15N-labelled for the NMR titrations; source: E. coli, purified by a procedure similar to that of the complex
Work on B1 yielded a Kd of 78.3 ± 9.9 µM.
